Results from US20110038874A1 (SHANGHAI AOSAIERSI BIOTECH, published 2011).

Experiments:
[1] = biological target: VEGFR2 expressed on HUVEC cells (human) (UniProt P35968); assay: cell-based or functional assay
mouse VEGFR2 = biological target: T1, mouse VEGFR2 (mouse, UniProt P35918 20-762, limits assumed); assay: not described ("a further study")
T1 construct: Assay and construct of the 'further study' are not described
T1 sequence (P35918 20-762 limits assumed): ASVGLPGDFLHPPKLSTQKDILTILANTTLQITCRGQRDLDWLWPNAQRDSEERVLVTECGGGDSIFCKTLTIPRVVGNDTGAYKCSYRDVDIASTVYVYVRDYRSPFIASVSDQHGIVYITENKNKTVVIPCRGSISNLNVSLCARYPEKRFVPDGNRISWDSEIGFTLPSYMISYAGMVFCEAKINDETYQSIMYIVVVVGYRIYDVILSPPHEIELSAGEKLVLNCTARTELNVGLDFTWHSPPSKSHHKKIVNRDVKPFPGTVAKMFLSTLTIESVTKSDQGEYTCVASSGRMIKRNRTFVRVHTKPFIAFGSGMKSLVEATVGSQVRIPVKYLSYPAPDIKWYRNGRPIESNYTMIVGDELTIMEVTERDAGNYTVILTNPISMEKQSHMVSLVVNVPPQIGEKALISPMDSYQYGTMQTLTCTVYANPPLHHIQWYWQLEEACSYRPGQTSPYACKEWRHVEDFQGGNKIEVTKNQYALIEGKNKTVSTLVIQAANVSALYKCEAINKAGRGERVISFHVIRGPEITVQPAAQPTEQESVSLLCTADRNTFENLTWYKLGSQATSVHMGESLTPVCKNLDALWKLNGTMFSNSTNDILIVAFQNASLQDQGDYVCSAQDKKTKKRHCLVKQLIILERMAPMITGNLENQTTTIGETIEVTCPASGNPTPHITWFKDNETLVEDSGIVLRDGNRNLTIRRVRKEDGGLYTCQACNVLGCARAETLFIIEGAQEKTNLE

Sequence of VEGFR2 expressed on HUVEC cells (human) (P35968 20-1356): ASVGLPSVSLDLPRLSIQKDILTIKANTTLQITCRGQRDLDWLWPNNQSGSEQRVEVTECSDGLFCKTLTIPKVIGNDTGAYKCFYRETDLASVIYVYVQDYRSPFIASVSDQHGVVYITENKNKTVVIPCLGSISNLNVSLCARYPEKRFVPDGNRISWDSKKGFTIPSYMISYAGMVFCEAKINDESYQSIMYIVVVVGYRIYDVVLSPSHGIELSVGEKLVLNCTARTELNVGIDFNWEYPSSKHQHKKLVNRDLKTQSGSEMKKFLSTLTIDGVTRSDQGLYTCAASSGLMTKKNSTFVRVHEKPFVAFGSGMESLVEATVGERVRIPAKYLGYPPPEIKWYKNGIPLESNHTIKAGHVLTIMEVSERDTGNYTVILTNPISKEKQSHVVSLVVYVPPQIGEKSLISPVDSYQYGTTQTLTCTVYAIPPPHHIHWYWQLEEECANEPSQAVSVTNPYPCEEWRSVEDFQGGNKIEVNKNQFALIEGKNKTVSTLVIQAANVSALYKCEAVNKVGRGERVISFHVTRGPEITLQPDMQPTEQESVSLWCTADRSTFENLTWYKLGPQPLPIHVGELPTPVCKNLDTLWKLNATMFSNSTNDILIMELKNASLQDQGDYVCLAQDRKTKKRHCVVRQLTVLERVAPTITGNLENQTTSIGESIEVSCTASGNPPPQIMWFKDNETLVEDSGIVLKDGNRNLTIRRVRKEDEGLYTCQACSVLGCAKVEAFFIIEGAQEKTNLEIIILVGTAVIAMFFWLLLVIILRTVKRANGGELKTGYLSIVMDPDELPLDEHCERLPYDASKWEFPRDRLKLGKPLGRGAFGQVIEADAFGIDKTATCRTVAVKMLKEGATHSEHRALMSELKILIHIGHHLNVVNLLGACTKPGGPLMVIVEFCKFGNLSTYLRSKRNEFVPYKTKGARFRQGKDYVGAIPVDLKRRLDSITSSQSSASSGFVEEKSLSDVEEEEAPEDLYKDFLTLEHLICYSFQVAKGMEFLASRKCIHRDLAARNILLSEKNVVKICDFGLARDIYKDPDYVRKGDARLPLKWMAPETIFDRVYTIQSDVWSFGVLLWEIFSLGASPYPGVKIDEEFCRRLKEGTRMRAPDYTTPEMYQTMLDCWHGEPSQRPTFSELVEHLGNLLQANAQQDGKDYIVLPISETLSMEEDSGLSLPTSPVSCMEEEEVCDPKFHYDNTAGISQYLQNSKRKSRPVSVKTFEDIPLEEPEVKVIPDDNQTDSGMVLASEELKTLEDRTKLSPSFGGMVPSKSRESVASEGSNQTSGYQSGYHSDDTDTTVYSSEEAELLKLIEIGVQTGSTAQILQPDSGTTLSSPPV

Molecule | HUVEC proliferation (VEGF-induced, cell count after 48 hours) [1] | binding result (mouse VEGFR2)
normal IgG (antibody) | 1 µg/mL | –
AC88 anti-VEGFR2 monoclonal antibody (antibody, human IgG1, kappa, V domains shown, Fully human IgG1 kappa from a hybridoma; also called AC88 antibody; anti-VEGFR2 antibody) VH: EVQLVESGGGLVKPGGSLRLSCAASGFTFSSYSMTWVRQAPGKGLEWVSSISSSSSYIYYADSVKGRFTISRDNAKNSLYLQMNSLRAEDTAVYYCAKATSGYMDVWGQGTTVTVSS VL: DIQMTQSPSSLSASVGDRVTITCQASQDINNYLNWYQQKPGKAPKLLIYDASNLETGVPSRFSGSGSGTDFTLTISSLESEDIATYYCQQHVNYPLTFGGGTKVEIKR | – | no binding
